In assay [1] the target is SARS-CoV-2 RBD.mmh (Spike amino acids Arg319-Phe541 with C-terminal myc-myc-6-Histidine tag) (SARS-CoV-2, UniProt P0DTC2 319-541).
Assay [2] concerns the target T1, SARS-COV-2 RBD-MMH (SARS-COV-2 RBD extracellular domain with C-terminal myc-myc-hexahistidine tag) (SARS-CoV-2).
In assay [3] the target is T1, SARS-COV-2 RBD-MMH (SARS-COV-2 RBD …). Nature of the assay: SPR 37C, mAb captured, pH 7.4 vs pH 6.0.
The target in assay [4] is SARS-COV-2 RBD-MMH (SARS-CoV-2). The assay can be described thus: SPR 37C, run with dissociation at pH 5.0.
The target of assay [5] is human FcγR3a 176Val allotype receptor (human, UniProt P08637 17-254). Nature of the assay: cell-based or functional assay.
Assay [6] has as its target SARS-COV-2 RBD-MMH (SARS-CoV-2). Nature of the assay: SPR 37C, run with dissociation at pH 7.4.

Several values for one entry are separate records, joined by “and”; a condition that tells them apart may be missing. Equal entries are not always repeated.

By IC50 is commonly meant the concentration that inhibits the measured activity by half. A high value points to weaker potency. As a reminder, the koff is a measure of how fast the partners let go of each other. A higher koff goes with a short-lived complex. What is called t½ is the time needed for the level to fall by half in the phase considered. The low end stands for rapid decline, the high end for slow decline.

B1: mAb14230 (antibody, V domains shown)
VH: EVQLVESGGGLIQPGRSLRLSCAASGFTFDDYAMHWVRQAPGKGLEWVSGISWNSVSIDYADSVKGRFTISRDNAKNSLYLQMTSLTVEDTALYYCAKAFGYETLTGSDYFAYWGPGTLVTVSS
VL: EIVLTQSPGTLSLSPGERATLSCRASQTVISTYLAWYQQKPGQSPRLLIYGASSRATGIPDRFSGSGSGTDFTLTISRLEPEDFAVYYCQQYGSSPQLTFGGGTKVEIKR
Regarding B1, the IC50 in assay [1] was found to be 9970 pM. Besides, in assay [2], the koff was 0.00797 s⁻¹, the “t½ at pH 6.0” value is 1.4 min and the “t½ at pH 7.4” value is 1.5 min. Besides, the “t½ Ratio of pH 7.4 to pH 6.0” value in assay [3] came out at 1.1.

B2: mAb14280 (antibody, V domains shown)
VH: QVQLVQSGAEVKKPGASVRVSCKASGYTFTGNYIHWVRQAPGQGLEWMAWINPNSGGKNYAQKFQGRVTLTRDTSVNTAYMELSRLRSDDTAMYYCARDVNYNILTGPGGLWGQGTLVTVSS
VL: QSALTQPPSASGSPGQSVTISCTGTSSDVGGYNFVSWYQQHPGKAPKLMIYEVSKRPSGVPDRFSGSKSGNTASLTVSGLQAEDEADYYCSSYAGSNNFVFGTGTKVTVLG
For the molecule B2, the half-inhibitory concentration (IC50) in assay [1] was 1740 pM. Moreover, in assay [2], the koff is 0.019 s⁻¹, the “t½ at pH 6.0” value worked out at 0.6 min and the “t½ at pH 7.4” value turned out to be 0.5 min. Also, in assay [3], the “t½ Ratio of pH 7.4 to pH 6.0” value is 0.8.

B3: mAb14258 (antibody, V domains shown)
VH: QLQLQESGPGLVKPSETLSLICTGSGDSISSSHYYWGWIRQPPGKGLEWIGSTYFSGSTYYNPSLKSRVSISVDTSKNQVSLKLISVTAADTAVYYCAREMGATLGDYWGPGTLVTVSS
VL: QSVLTQPPSASGTPGQRVTISCSGSSSNIGNNYVYWYQQFPGTTPRLLIYRNNERPSGVPDRFSGSKSGTSASLVISGLRSEDEADYYCAAWDDSLSAHYVFGTGTKVTVLG
Regarding B3, the IC50 in assay [1] worked out at 121 pM. Also, in assay [2], the “t½ at pH 6.0” value amounted to 21.1 min and the “t½ at pH 7.4” value was 5.4 min. In addition, the “t½ Ratio of pH 7.4 to pH 6.0” value in assay [3] was 0.3.

B4: mAb14285 (antibody)
heavy: not shown
light: QSALTQPASVSGSPGQSITISCTGTSSDVESYNLVSWYQQHPGKAPKLMIYEGSKRPSGVSNRFSGSKSGNTASLTISGLQAEDEADYYCSSYAGSSTWVFGGGTKLTVLGQPKAAPSVTLFPPSSEELQANKATLVCLISDFYPGAVTVAWKADSSPVKAGVETTTPSKQSNNKYAASSYLSLTPEQWKSHRSYSCQVTHEGSTVEKTVAPTECS
As for B4, in the assay with SARS-COV-2 RBD-MMH [4], the “RBD.mmh Bound at pH 7.4 (RU)” value worked out at 51.5 RU, the koff stood at 0.0025 s⁻¹ and the t½ worked out at 4.6 min. In assay [5], the “EC50 (M), Jurkat/CD20/spike” value worked out at 2.43e-10 M; the “Fold induction, Jurkat CD20” value turned out to be 1.1 fold; the “Fold induction, Jurkat/CD20/spike” value was found to be 11 fold. In addition, in the assay with SARS-COV-2 RBD-MMH [6], the “RBD.mmh Bound at pH 7.4 (RU)” value is 64.2 RU and the koff stood at 0.0258 s⁻¹.

B5: mAb14256 (antibody, V domains shown)
VH: QVQLQESGPGLVKPSETLSLTCTVSGGSISSHYWSWIRQPPGKGLEWIGYIYYSGSSNYNPSLKSRVTISVDTSKNQFSLKLNSVTAADTAVYYCARHYDILTGFDWFDPWGQGTLVTVSS
VL: QSVLTQPPSVSGAPGQRVTISCTGSSSNIGTHYDVHWYQQLPGTAPKLLIYGNSNRPSGVPDRFSGSKSGTSASLAITGLQAEDEADYYCQSFDNSLTAPYVFGTGTKVTVLG
B5: in assay [1], the IC50 was found to be 480 pM. Besides, in assay [2], the koff amounted to 0.00955 s⁻¹, the “t½ at pH 6.0” value worked out at 1.2 min and the “t½ at pH 7.4” value amounted to 1 min. For the same molecule, in assay [3], the “t½ Ratio of pH 7.4 to pH 6.0” value was determined as 0.8.

B6: mAb14232 (antibody, V domains shown)
VH: QITLKESGPTLVKPTQTLTLTCTFSGFSLSASGVGVGWIRQPPGKALEWLALIYWDDDKRYSPSLKSRLTITKDTSKNQVVLTMTNMDPVDTATYYCAQHKVATIFDYWGQGTLVTVSS
VL: QSALTQPPSASGSPGQSVTISCTATSSDVGNYNYVSWYQQHPGKAPKLMIYEVTKRPSGVPDRFSGSKSGNTASLTVSGLQAEDEADYYCSSYAGSWGVFGGGTKLTVLG
Consider B6, for which the IC50 in assay [1] was determined as 18000 pM. Further, in assay [2], the koff was determined as 0.0124 s⁻¹, the “t½ at pH 6.0” value turned out to be 0.9 min and the “t½ at pH 7.4” value is 0.4 min. The “t½ Ratio of pH 7.4 to pH 6.0” value in assay [3] is 0.4.

B7: mAb14247 (antibody, V domains shown)
VH: QITLKESGPTLVKPTQTLTLTCTFSGFSLSTSAVGVGWIRQPPGKALEWLALIYWDDDKRYSPSLKSRLTITKDTSKNQLVLTMTNVDPVDTATYYCAHHTIQLIFDYWGQGTLVTVSS
VL: QSALTQPASVSGSPGQSITISCTATSSDVGNYNYVSWYQQHPGKAPKLMIYEVSNRPSGVSNRFSGSKSGNTASLTISGLQAEDEADYYCSSYTSSSTPLVFGGGTKLTVLG
In the case of B7, in assay [1], the half-maximal inhibitory concentration (IC50) came out at 446 pM. In assay [2], the off-rate (koff) worked out at 0.00167 s⁻¹, the “t½ at pH 6.0” value was 6.9 min and the “t½ at pH 7.4” value is 7.3 min. Also, in assay [3], the “t½ Ratio of pH 7.4 to pH 6.0” value was 1.1.

B8: mAb14234 (antibody, V domains shown)
VH: QVQLVESGGGVVQPGRSLRLSCAASGFTFSSYGIHWVRQAPGKGLEWVAIIWYDGSEKYYADSVKGRFTISRDNSKNTLFLQMNSLEAEDTAVYYCARGPDLLTGYYNYFYYGMDVWGQGTTVTVSS
VL: QSVLTQPPSVSGAPGQRVTISCTGSSSNIGIGYDVHWYQQLPGTVPKLLIYGNTNRPSGVPDRFSGSKSGTSASLAITGLQAEDEADYYCQSYDSSLSSYVFGTGTKVTVLG
The molecule B8 had an IC50 in assay [1] of 4620 pM. For the same molecule, in assay [2], the off-rate (koff) turned out to be 0.00143 s⁻¹, the “t½ at pH 6.0” value came to 8.1 min and the “t½ at pH 7.4” value was determined as 5.2 min. Further, the “t½ Ratio of pH 7.4 to pH 6.0” value in assay [3] came out at 0.6.

B9: mAb14281 (antibody, V domains shown)
VH: QVQLVQSGADVKKPGASVKVSCKTSGYIFTGYYIHWVRQAPGQGLEWMGWINPNSGGTNSAQKFQGRVTMTRDTSISTVYMELSRLRSDDTAVYYCAKSNSFSVLDYNFDYWGQGTLVTVSS
VL: SSELTQDPAVSVALGQTVRITCQGDSLRSYYASWYQQKPGQAPVLVIYDKNNRPSGIPDRFSGSSSGNTASLTITGAQAEDEADYYCNSRDSSRNHLVVFGGGTKLTVLG
Consider B9, for which the IC50 in assay [1] is 397 pM. Also, in assay [2], the off-rate constant (koff) was found to be 0.00734 s⁻¹, the “t½ at pH 6.0” value is 1.6 min and the “t½ at pH 7.4” value amounted to 1.8 min. Also, the “t½ Ratio of pH 7.4 to pH 6.0” value in assay [3] stood at 1.1.

B10: mAb14255 (antibody, V domains shown)
VH: QVQLQESGPGLVKPSETLSLTCTVSGGSISGYYWSWIRQPPGKGLDWIGYIYYRGNTNYNPSLKSRVTISVDTSNNQFSLKLSSVTAADTAVYYCARYGEGYGDASGYHFDYWGQGTLVTVSS
VL: QSALTQPASVSGSPGQSITISCTGTSSDVGSYNLVSWYQQHPGKAPKLMIYEDSKRPSGVANPFSGSKSGNTASLTISGLQAEDEADYYCSSYAGSSTWVFGGGTKLTVLG
In assay [1], B10 had a 50% inhibitory concentration (IC50) of 157 pM. For the same molecule, in assay [2], the off-rate (koff) came to 0.00513 s⁻¹, the “t½ at pH 6.0” value stood at 2.3 min and the “t½ at pH 7.4” value turned out to be 2.3 min. Besides, the “t½ Ratio of pH 7.4 to pH 6.0” value in assay [3] came out at 1.

B11: mAb13458 (antibody, V domains shown)
VH: EVQLVESGGGLVQPGRSLRLSCAASGFTFDDYAMHWVRQAPGKGLEWVSGISWNSGSIGYADSVKGRFTISRDNAKNSLYLQMNSLRAEDTALYYCAKDIGITTPYWGQGTLVTVSS
VL: AIQMTQSPSSLSASVGDRVTITCRASQDIRNDLGWYQQKPGKAPKLLIYSASSLQTGVPSRFSGSGSGTDFTLTISSLHPEDFATYYCLQDYWYTWTFGQGTKVEIKR
Regarding B11, half-maximal inhibition in assay [1] (IC50) was put at 873 pM. In assay [2], the koff stood at 0.00199 s⁻¹, the “t½ at pH 6.0” value came to 5.8 min and the “t½ at pH 7.4” value turned out to be 7.2 min. Besides, in assay [3], the “t½ Ratio of pH 7.4 to pH 6.0” value turned out to be 1.2.

B12: mAb13459 (antibody, V domains shown)
VH: EVQLVESGGGLVQPGRSLRLSCAASGFTFDDYAMHWVRQAPGKGLEWVSGISWNSGSIGYADSVKGRFTISRDNAKNSLYLQMNSLRAEDTALYYCAKDIGITTPYWGQGTLVTVSS
VL: AIQMTQSPSSLSASVGDRVTITCRASQDIRNDLGWYQQKPGKAPKLLIYSASSLQTGVPSRFSGSGSGTDFTLTISSLHPEDFATYYCLQDYNYVWTFGQGTKVEIKR
Regarding B12, in assay [1], the IC50 was determined as 4430 pM. In addition, in assay [2], the koff was 0.00229 s⁻¹ and 0.00239 s⁻¹; the “t½ at pH 6.0” value was 4.8 min; the “t½ at pH 7.4” value is 5.1 min. Moreover, in assay [3], the “t½ Ratio of pH 7.4 to pH 6.0” value stood at 1.1.

B13: mAb14257 (antibody, V domains shown)
VH: EVQLVESGGGLVQPGGSLRLSCAASGFTVSRSYMNWVRQAPGKGLEWVSVVFTGGTTKHTDSVKGRFTISRDNSMNTLYLQMNSLRPEDTAVYYCARVAIVETTGAFDIWGQGTMVTVSS
VL: QSVLTQPPSVSGAPGQRVTISCTGTSSNIGADFDVHWYQQFPGTAPKLLIYGHTNRPSGIPDRFSGSKSGTSASLAITGLQAEDEADYYCQSYDSSLSGSVVFGGGTKLTVLG
The molecule B13 came in with a half-maximal inhibitory concentration (IC50) in assay [1] of 365 pM. In addition, in assay [2], the dissociation rate constant (koff) is 0.00842 s⁻¹, the “t½ at pH 6.0” value is 1.4 min and the “t½ at pH 7.4” value turned out to be 1.5 min. The “t½ Ratio of pH 7.4 to pH 6.0” value in assay [3] came to 1.1.

B14: mAb14235 (antibody, V domains shown)
VH: QITLKESGPTLVKPTQTLTLTCTFSGFSLNTGGVGVGWIRQPPGNALEWLALIYWDDDKRYNPSLKTRLTISKDTSKNQVVLTMTNMDPVDTATYFCAHLTIAVIVDFWGQGTLVTVSS
VL: QSALTQPASVSGSPGQSITISCTATSSDVGTYNYVSWFQHHPGKAPKLMIYEVTNRPSGVSNRFSGSKSGNTASLTISGLQAEDEADYYCSSYTTTSIVFGGGTKLTVLG
In the case of B14, the IC50 in assay [1] turned out to be 234 pM. In addition, in assay [2], the koff was 0.00114 s⁻¹, the “t½ at pH 6.0” value is 10.1 min and the “t½ at pH 7.4” value is 7.8 min. In assay [3], the “t½ Ratio of pH 7.4 to pH 6.0” value was found to be 0.8.

(Values after US20260069689A1 (Regeneron, published 2026).)
